Data as given in publication PMC11615228, “3D variability analysis reveals a hidden conformational change controlling ammonia transport in human asparagine synthetase” (Nature Communications, 2024).
Substitutions are numbered along the chain they refer to. Names and notes keep the numbering of the source.

B1: wild-type (WT) human asparagine synthetase (ASNS) (enzyme, UniProt P08243 1-561, looked up)
chain: MCGIWALFGSDDCLSVQCLSAMKIAHRGPDAFRFENVNGYTNCCFGFHRLAVVDPLFGMQPIRVKKYPYLWLCYNGEIYNHKKMQQHFEFEYQTKVDGEIILHLYDKGGIEQTICMLDGVFAFVLLDTANKKVFLGRDTYGVRPLFKAMTEDGFLAVCSEAKGLVTLKHSATPFLKVEPFLPGHYEVLDLKPNGKVASVEMVKYHHCRDVPLHALYDNVEKLFPGFEIETVKNNLRILFNNAVKKRLMTDRRIGCLLSGGLDSSLVAATLLKQLKEAQVQYPLQTFAIGMEDSPDLLAARKVADHIGSEHYEVLFNSEEGIQALDEVIFSLETYDITTVRASVGMYLISKYIRKNTDSVVIFSGEGSDELTQGYIYFHKAPSPEKAEEESERLLRELYLFDVLRADRTTAAHGLELRVPFLDHRFSSYYLSLPPEMRIPKNGIEKHLLRETFEDSNLIPKEILWRPKEAFSDGITSVKNSWFKILQEYVEHQVDDAMMANAAQKFPFNTPKTKEGYYYRQVFERHYPGRADWLSHYWMPKWINATDPSARTLTHYKSAVKA
notes: human asparagine synthetase (glutamine-hydrolysing), unmodified recombinant enzyme; the N-terminal residue is Cys-1 (initiator Met removed) and the C-terminal tail ends at residue 560; Cys-1 is C2 in P08243); No tag is stated for the WT enzyme; the variants were purified on Ni-NTA, so the WT construct may also carry a His tag; Residues 201-220, 465-475 and 539-560 have no density in the EM map …
B2: R142I ASNS variant (human asparagine synthetase with Arg-142 replaced by isoleucine) (enzyme, UniProt P08243 1-561, looked up)
chain: B1 chain with R143I
notes: human asparagine synthetase with R142I; only elution from Ni-NTA with imidazole is described; also called R142I variant; ASNS R142I; source: Sf9 cells (baculovirus), purified (Ni-NTA, PD-10 buffer exchange)

Target: the molecule itself
Test: cryo-EM structure; single-particle cryo-EM of the purified enzyme without ligands; 25 mM Tris-HCl pH 8.0, 200 mM NaCl, 5 mM DTT; WT at 9.0 mg/mL, R142I at 3.2 mg/mL; grids made at 4 °C; C2 symmetry imposed

Row | Protein | stoichiometry N
1 | B1 | 2
2 | B2 | 2
